Results from article PMC7243947, “AcDCXR Is a Cowpea Aphid Effector With Putative Roles in Altering Host Immunity and Physiology” (Frontiers in Plant Science, 2020).

What was measured:
purified protein [1] = substrate: CC(=O)C=O; experiment: purified protein; assay type: biochemical, Aphis craccivora; details: 200 μM NADPH (methods; figure legend prints 200 mM), sodium phosphate pH 6.5, methylglyoxal varied
purified protein [2] = substrate: NC(=O)c1ccc[n+]([C@@H]2O[C@H](COP(=O)(O)OP(=O)(O)OC[C@H]3O[C@@H](n4cnc5c(N)ncnc54)[C@H](OP(=O)(O)O)[C@@H]3O)[C@@H](O)[C@H]2O)c1; experiment: purified protein; assay type: biochemical, Aphis craccivora; details: 200 mM xylitol fixed, NADP+ varied, 100 mM glycine pH 9.5, 3 mM MgCl2, paper speaks of it as constant of xylitol oxidation, varied: cofactor

B1: AcDCXR (Aphis craccivora) (protein)
chain: MEEFFVGKKFIVTGANAGIGETITKRLVQLGAHVFAVGRDPKKLPPAGPNLTPVCADVGDWDSYDIIKKLGPVHGLVNNAGVAFIESFFDMTQEGWDKTLNINARGIVRISQAVAQNMKDAGIKGSIVNVSSTISERAIPDHTSYCASKGAVNQVTRVMSIELGKLGIRTNNVNPTVVMTKMGAKAWSDPEKSNPILSRIPLGRFAECDDVANVTLFLLSDYSTYVNGVSIPVDGGFLAS
notes: coding region without predicted signal peptide (first 23 of at least 263 residues); pDEST17 N-terminal 6xHis tag, no cleavage told; E. coli ArcticExpress
**Q.** B1 was tested. Which Km (purified protein [1]) did it give?
**A.** Its Km is 1300 µM.

**Q.** And the kcat (purified protein [1])?
**A.** Its kcat is 0.23 s⁻¹.

**Q.** What about the Km (purified protein [2]) of the same protein?
**A.** Its Km is 560 µM.

**Q.** What about the kcat (purified protein [2]) of the same protein?
**A.** The kcat was 1.85 s⁻¹.
